# Source: PMC9606039, “Molecular analysis of a public cross-neutralizing antibody response to SARS-CoV-2” (Cell Reports, 2022)
# Molecular target: T1, receptor-binding domain (RBD) (residues 319-541) of the SARS-CoV-2 spike (S) protein (SARS-CoV-2, ancestral Wuhan-Hu-1 …, UniProt P0DTC2)
# T1 construct: also called SARS-CoV-2 RBD; wild-type RBD
# Assay: BLI
# Conditions: both partners purified
binder,measurement,value
"2-7 D54N Fab (Fab, V domains shown) VH: QITLKESGPTLVKPTQTLTLTCTFSGFSLSTSGVGVGWIRQPPGKALEWLALIYWNDDKRYSPSLKSRLTITKDTSKNQVVLTMTNMDPVDTATYYCAHHKIERIFDYWGQGTLVTVSS VL: QSALAQPASVSGSPGQSITISCTGTSSDVGAYNYVSWYQQHPGKAPKLMIYDVSKRPSGVSNRFSGSKSGNTASLTISGLQAEDEADYYCSSYTTSSTVFGGGTKLTVL",fold weakening of KD against the wild-type Fab,≥ 100 fold
